Experiments:
[1] = target: T1, LtrA, intron-encoded protein (IEP) of the Lactococcus lactis Ll.LtrB group II intron (Lactococcus lactis), P0A3U0; assay: AUC; sedimentation velocity of purified +A RNP at 7-14 ng/µl; 4°C; 28 000 rpm; 20 mM Tris pH 7.4, 200 mM KCl, 5 mM MgCl2; absorbance at 260 nm; SEDFIT; settings: remark: other sources report otherwise
T1 chain: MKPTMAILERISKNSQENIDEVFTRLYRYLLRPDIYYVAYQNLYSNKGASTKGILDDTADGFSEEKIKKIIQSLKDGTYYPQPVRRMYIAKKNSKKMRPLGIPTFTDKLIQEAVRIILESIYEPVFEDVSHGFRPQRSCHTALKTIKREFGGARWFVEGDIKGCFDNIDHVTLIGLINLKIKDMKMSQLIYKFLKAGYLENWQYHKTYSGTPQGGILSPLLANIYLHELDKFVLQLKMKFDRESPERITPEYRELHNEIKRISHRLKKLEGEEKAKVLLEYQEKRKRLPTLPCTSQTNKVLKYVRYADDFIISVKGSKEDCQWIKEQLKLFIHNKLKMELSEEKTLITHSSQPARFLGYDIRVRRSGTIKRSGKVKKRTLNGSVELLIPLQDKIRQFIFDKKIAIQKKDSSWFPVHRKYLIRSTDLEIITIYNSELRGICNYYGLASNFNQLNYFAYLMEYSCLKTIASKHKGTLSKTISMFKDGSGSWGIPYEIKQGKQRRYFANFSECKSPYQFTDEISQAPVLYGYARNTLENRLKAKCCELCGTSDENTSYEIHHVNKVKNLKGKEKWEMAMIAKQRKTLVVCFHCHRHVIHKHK

[2] = target: T1, LtrA, intron-encoded protein (IEP) of …; assay: SEC-MALS; purified +A RNP (LtrA with 902 nt intron lariat RNA) on Superdex 200 10/300 GL; 20 mM Tris pH 7.4, 200 mM KCl, 5 mM MgCl2; room temperature; mass-averaged dn/dc 0.182 ml/g; settings: remark: other sources report otherwise

B1: LtrA, intron-encoded protein (IEP) of the Lactococcus lactis Ll.LtrB group II intron, P0A3U0 1-599 (natural protein)
chain: MKPTMAILERISKNSQENIDEVFTRLYRYLLRPDIYYVAYQNLYSNKGASTKGILDDTADGFSEEKIKKIIQSLKDGTYYPQPVRRMYIAKKNSKKMRPLGIPTFTDKLIQEAVRIILESIYEPVFEDVSHGFRPQRSCHTALKTIKREFGGARWFVEGDIKGCFDNIDHVTLIGLINLKIKDMKMSQLIYKFLKAGYLENWQYHKTYSGTPQGGILSPLLANIYLHELDKFVLQLKMKFDRESPERITPEYRELHNEIKRISHRLKKLEGEEKAKVLLEYQEKRKRLPTLPCTSQTNKVLKYVRYADDFIISVKGSKEDCQWIKEQLKLFIHNKLKMELSEEKTLITHSSQPARFLGYDIRVRRSGTIKRSGKVKKRTLNGSVELLIPLQDKIRQFIFDKKIAIQKKDSSWFPVHRKYLIRSTDLEIITIYNSELRGICNYYGLASNFNQLNYFAYLMEYSCLKTIASKHKGTLSKTISMFKDGSGSWGIPYEIKQGKQRRYFANFSECKSPYQFTDEISQAPVLYGYARNTLENRLKAKCCELCGTSDENTSYEIHHVNKVKNLKGKEKWEMAMIAKQRKTLVVCFHCHRHVIHKHK
[1]
  stoichiometry N: 2
[2]
  stoichiometry N: 2
